Measurements: PMC11119796
“And” between values parts separate entries of the source, which are not always exact repeats. Identical values can stand only once.

Columns and labels:
[1] = target: endogenous Pkm2 (4T1 cells) (mouse (endogenous in 4T1)) (UniProt P52480); assay: cross-linking; DSS 250 μM added to collected cells in PBS pH 8.0, 30 min at 37 °C, quenched with 10 mM Tris-HCl pH 7.5; lysis and Western blot of PKM2; 4T1 cells (control or Islr-deleted) and A549 cells (with or without stable ISLR, H2O2 at indicated dose for 30 min)
[2] = target: endogenous PKM2 (A549 cells) (human (endogenous in A549)) (UniProt P14618); assay: as above

Chain of endogenous Pkm2 (4T1 cells), P52480 1-531 (enzyme; other documents disagree on this pair) (P52480 whole entry): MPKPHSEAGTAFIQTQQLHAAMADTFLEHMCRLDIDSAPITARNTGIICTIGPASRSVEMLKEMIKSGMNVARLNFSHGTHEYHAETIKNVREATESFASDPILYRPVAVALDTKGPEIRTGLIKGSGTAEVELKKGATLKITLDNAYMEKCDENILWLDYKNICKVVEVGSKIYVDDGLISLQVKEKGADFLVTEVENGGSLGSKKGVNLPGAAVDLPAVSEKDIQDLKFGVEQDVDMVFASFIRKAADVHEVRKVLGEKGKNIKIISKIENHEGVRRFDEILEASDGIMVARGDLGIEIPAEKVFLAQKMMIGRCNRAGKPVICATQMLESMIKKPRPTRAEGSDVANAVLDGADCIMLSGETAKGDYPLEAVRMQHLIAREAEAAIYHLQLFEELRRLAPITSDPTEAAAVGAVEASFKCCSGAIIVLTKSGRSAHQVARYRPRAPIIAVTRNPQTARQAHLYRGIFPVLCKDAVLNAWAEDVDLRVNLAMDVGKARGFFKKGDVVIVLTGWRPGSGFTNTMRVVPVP
Chain of endogenous PKM2 (A549 cells), P14618 1-531 (enzyme; other documents disagree on this pair) (P14618 whole entry): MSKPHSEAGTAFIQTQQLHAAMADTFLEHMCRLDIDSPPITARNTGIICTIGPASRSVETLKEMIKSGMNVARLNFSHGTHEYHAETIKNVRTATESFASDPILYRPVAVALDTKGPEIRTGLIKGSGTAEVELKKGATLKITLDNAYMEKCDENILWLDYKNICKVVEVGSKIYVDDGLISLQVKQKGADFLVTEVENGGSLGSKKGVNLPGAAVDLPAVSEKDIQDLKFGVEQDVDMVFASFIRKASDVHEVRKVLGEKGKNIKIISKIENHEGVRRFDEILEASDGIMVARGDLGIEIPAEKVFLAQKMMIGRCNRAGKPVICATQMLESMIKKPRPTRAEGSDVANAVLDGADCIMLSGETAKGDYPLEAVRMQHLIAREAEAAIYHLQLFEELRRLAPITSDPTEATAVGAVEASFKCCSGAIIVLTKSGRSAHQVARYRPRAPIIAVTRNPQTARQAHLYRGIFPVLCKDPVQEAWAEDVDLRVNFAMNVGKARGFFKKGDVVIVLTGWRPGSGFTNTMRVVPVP

| Substance | stoichiometry N [1] | stoichiometry N [2] |
| --- | --- | --- |
| endogenous Pkm2 (4T1 cells), P52480 1-531 (enzyme; other documents disagree on this pair) | 2 and 4 |  |
| endogenous PKM2 (A549 cells), P14618 1-531 (enzyme; other documents disagree on this pair) |  | 2 |
